# Measurements as given in paper PMC11480844 (2024).
# B1: H2-Kb / Ed16-30 (parent complex)
# chain 1: GEQVEQRPPHLSVREGDSAVIICTYTDPNSYYFFWYKQEPGAGLQLLMKVFSSTEINEGQGFTVLLNKKDKQLSLNLTAAHPGDSAVYFCAVSEPSSGQKLVFGQGTILKVYL
# chain 2: EAAVTQSPRNKVAVTGGKVTLSCNQTNNHNNMYWYRQDTGHGLRLIHYSYGAGSTEKGDIPDGYKASRPSQENFSLILELATPSQTSVYFCAGRDTGQLYFGEGSKLTVL
# chain 3: not shown
# chain 4: IQKTPQIQVYSRHPPENGKPNILNCYVTQFHPPHIEIQMLKNGKKIPKVEMSDMSFSKDWSFYILAHTEFTPTETDTYACRVKHDSMAEPKTVYWDRDM
# chain 5: SIINFEKL
# B2: H2-Kb / Ed40 (parent complex)
# chain 1: GDSVTQTEGPVTVSESESLIINCTYSATSIAYPNLFWYVRYPGEGLQLLLKVITAGQKGSSRGFEATYNKETTSFHLQKASVQESDSAVYYCALGDGYTGNYKYVFGAGTRLKVIA
# chain 2: DSGVVQSPRHIIKEKGGRSVLTCIPISGHSNVVWYQQTLGKELKFLIQHYEKVERDKGFLPSRFSVQQFDDYHSEMNMSALELEDSAMYFCASSGASAETLYFGSGTRLTVL
# chain 3: not shown
# chain 4: B1 chain 4
# chain 5: SIINFEKL
# Variants of: B1
# Experiment: % of reporter cells activated (NFAT-GFP), raw
# Further: test concentration or dose not given here.
row,Variant,ratio to parent
1,chain 5 E6L,0.387
2,chain 5 E6M,0.399
3,chain 5 E6S,0.609
4,chain 5 E6A,0.508
5,chain 5 N4M,0.0762
6,chain 5 N4R,0.318
7,chain 5 N4A,0.0158
8,chain 5 N4S,0.0223
9,chain 5 L8M,1.08
10,chain 5 L8N,0.798
11,chain 5 L8S,1.04
12,chain 5 L8G,0.904
13,chain 5 L8K,1
14,chain 5 L8H,1.06
15,chain 5 L8Q,1.13
16,chain 5 I2P,1.06

row,Variant,ratio to parent
1,chain 5 I2Y,0.774
2,chain 5 K7I,0.61
3,chain 5 K7W,0.74
4,chain 5 K7E,0.0275
5,chain 5 K7D,0.162
6,chain 5 K7V,0.687
7,chain 5 S1E,0.0535
8,chain 5 S1P,0.0976
9,chain 5 S1F,0.025
10,chain 5 S1M,0.632
11,chain 5 S1C,0.186
12,chain 5 I3H,0.558
13,chain 5 I3K,0.779
14,chain 5 I3V,1.11
15,chain 5 I3M,0.425
16,chain 5 I3N,0.507

# Further lines, results first:
row,ratio to parent,Variant
1,1.21,chain 5 F5L
2,1.23,chain 5 F5C
3,0.752,chain 5 F5E
4,0.00701,chain 5 E6I
5,0.0259,chain 5 N4T
6,0.0363,chain 5 N4C
7,0.0853,chain 5 N4K
8,0.165,chain 5 N4H
9,1.04,chain 5 L8A
10,1.2,chain 5 I2A
11,0.978,chain 5 I2K
12,0.951,chain 5 I2N
13,1.21,chain 5 I2E
14,1.19,chain 5 I2S
15,0.381,chain 5 K7G
16,0.716,chain 5 K7T
17,0.631,chain 5 S1A
18,0.55,chain 5 S1Y
19,0.323,chain 5 S1Q
20,0.313,chain 5 S1L
21,0.64,chain 5 I3P

# Variants of: B2
# Experiment: % of reporter cells activated (NFAT-GFP), raw
row,Variant,ratio to parent
1,chain 5 L8Y,0.96
2,chain 5 L8H,0.822
3,chain 5 L8E,0.612
4,chain 5 L8D,0.546
5,chain 5 L8T,0.885
6,chain 5 L8Q,0.716
7,chain 5 L8V,0.831
8,chain 5 L8M,0.897
9,chain 5 L8F,0.993
10,chain 5 I3W,0.488
11,chain 5 I3M,0.462
12,chain 5 I3N,0.534
13,chain 5 I3G,0.319
14,chain 5 I3V,0.69
15,chain 5 I3F,0.641
16,chain 5 N4A,0.0166
17,chain 5 N4Y,0.0157
18,chain 5 N4P,0.00321
19,chain 5 N4M,0.00232
20,chain 5 N4H,0.0593
21,chain 5 N4C,0.0253
22,chain 5 N4W,0.00287
23,chain 5 N4T,0.00333

row,Variant,ratio to parent
1,chain 5 N4I,0.02
2,chain 5 I2T,1.18
3,chain 5 I2V,1.15
4,chain 5 I2G,0.922
5,chain 5 I2R,0.958
6,chain 5 I2Q,0.697
7,chain 5 I2A,1.13
8,chain 5 I2E,0.869
9,chain 5 I2L,1.14
10,chain 5 K7I,0.165
11,chain 5 K7L,0.192
12,chain 5 K7R,0.622
13,chain 5 K7F,0.0192
14,chain 5 K7T,0.224
15,chain 5 K7S,0.648
16,chain 5 K7A,0.343
17,chain 5 K7W,0.644
18,chain 5 K7M,0.0429
19,chain 5 K7P,0.296
20,chain 5 E6A,0.445
21,chain 5 E6N,0.287
22,chain 5 E6R,0.675
23,chain 5 E6G,0.464

row,Variant,ratio to parent
1,chain 5 E6H,0.172
2,chain 5 E6C,0.0158
3,chain 5 E6P,0.164
4,chain 5 F5N,0.891
5,chain 5 F5R,0.938
6,chain 5 F5D,0.49
7,chain 5 F5L,0.906
8,chain 5 F5S,1.09
9,chain 5 F5E,0.52
10,chain 5 F5I,0.615
11,chain 5 F5Q,0.601
12,chain 5 F5K,0.685
13,chain 5 S1V,0.738
14,chain 5 S1C,0.615
15,chain 5 S1Y,0.977
16,chain 5 S1K,0.399
17,chain 5 S1N,0.31
18,chain 5 S1Q,0.681
19,chain 5 S1F,0.765
20,chain 5 S1D,0.892
21,chain 5 S1P,0.576

# Further lines, results first:
row,ratio to parent,Variant
1,0.595,chain 5 L8G
2,0.651,chain 5 L8P
3,0.329,chain 5 I3Q
4,0.523,chain 5 I3C
5,0.166,chain 5 I3D
6,0.895,chain 5 I3L
7,0.762,chain 5 I3Y
8,0.423,chain 5 I3T
9,0.207,chain 5 I3R
10,0.0118,chain 5 N4G
11,0.00154,chain 5 N4E
12,0.0147,chain 5 N4S
13,0.362,chain 5 N4R
14,0.00938,chain 5 N4F
15,0.00665,chain 5 N4D
16,0.086,chain 5 N4L
17,1.1,chain 5 I2S
18,0.757,chain 5 I2N
19,0.0102,chain 5 K7D
20,0.224,chain 5 K7V
21,0.00653,chain 5 K7E
22,0.527,chain 5 E6Q
23,0.0475,chain 5 E6W
24,0.00278,chain 5 E6I
25,0.0664,chain 5 E6F
26,1.02,chain 5 F5W
27,0.335,chain 5 S1W
28,1,chain 5 S1G
29,0.466,chain 5 S1L
30,0.432,chain 5 S1E
